The supplement of paper PMC10065799, “High-throughput profiling of sequence recognition by tyrosine kinases and SH2 domains using bacterial peptide display” (eLife, 2023)

Tests used:
Grb2 SH2 = Grb2 SH2 (UniProt P62993); experiment: SH2 binding enrichment of the phosphorylated peptide, bacterial display (enrichment ratio); higher = better substrate or ligand; peptides without Tyr show the background
SHP2-C SH2 = experiment: as above
c-Src SH2 = experiment: as above
FGFR3 = FGFR3 (UniProt P22607); experiment: phosphorylation enrichment, bacterial display (enrichment ratio); higher = better substrate or ligand; peptides without Tyr show the background
MERTK = MERTK (UniProt Q12866); experiment: as above
FGFR1 = FGFR1 (UniProt P11362); experiment: as above
AncSZ = experiment: as above
Hck = Hck (UniProt P08631); experiment: as above
c-Src = experiment: as above
Fer (mouse) = experiment: as above
Jak2 = Jak2 (UniProt O60674); experiment: as above
EPHB1 = EPHB1 (UniProt P54762); experiment: as above
Fyn = Fyn (UniProt P06241); experiment: as above
EPHB2 = EPHB2 (UniProt P29323); experiment: as above
c-Abl (mouse) = experiment: as above
Fes = Fes (UniProt P07332); experiment: as above
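Throughout, for SH2 binding enrichment of the phosphorylated peptide, bacterial display: peptide library displayed on the E. coli surface as eCPX fusions, selected cells deep-sequenced, score is each peptide's frequency after selection divided by its frequency in the input.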
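Throughout, for phosphorylation enrichment, bacterial display: 11-residue human phosphosite peptides and single-mutation variants displayed on the E. coli surface, counted by deep sequencing, each peptide's frequency after selection divided by its frequency in the unselected input library; frequency after pTyr selection over input frequency; kinase dosed for 20-30% of maximal phosphorylation in three min.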

Sequence of FGFR1 (P11362 whole entry, looked up): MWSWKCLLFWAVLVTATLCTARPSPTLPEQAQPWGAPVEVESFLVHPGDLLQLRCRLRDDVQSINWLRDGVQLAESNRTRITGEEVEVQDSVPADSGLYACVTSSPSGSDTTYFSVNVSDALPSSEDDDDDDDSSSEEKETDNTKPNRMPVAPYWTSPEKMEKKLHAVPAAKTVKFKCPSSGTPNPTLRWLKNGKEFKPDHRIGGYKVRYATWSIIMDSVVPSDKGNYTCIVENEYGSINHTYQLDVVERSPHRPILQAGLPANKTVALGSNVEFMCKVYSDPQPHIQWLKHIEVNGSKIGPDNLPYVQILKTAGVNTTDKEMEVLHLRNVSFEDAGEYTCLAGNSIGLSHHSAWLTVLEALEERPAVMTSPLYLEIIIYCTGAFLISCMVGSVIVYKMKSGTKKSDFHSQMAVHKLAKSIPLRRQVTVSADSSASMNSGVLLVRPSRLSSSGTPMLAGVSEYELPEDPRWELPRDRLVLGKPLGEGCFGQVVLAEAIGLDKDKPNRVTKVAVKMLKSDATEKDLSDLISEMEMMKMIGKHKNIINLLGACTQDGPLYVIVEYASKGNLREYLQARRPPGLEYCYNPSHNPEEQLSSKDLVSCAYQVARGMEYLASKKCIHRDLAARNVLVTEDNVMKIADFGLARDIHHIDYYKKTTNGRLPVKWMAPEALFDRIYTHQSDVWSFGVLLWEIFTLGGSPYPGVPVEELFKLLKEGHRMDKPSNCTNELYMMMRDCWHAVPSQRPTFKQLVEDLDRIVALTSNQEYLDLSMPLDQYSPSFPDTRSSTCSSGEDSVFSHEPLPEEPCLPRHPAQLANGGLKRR
Sequence of Jak2 (O60674 whole entry, looked up): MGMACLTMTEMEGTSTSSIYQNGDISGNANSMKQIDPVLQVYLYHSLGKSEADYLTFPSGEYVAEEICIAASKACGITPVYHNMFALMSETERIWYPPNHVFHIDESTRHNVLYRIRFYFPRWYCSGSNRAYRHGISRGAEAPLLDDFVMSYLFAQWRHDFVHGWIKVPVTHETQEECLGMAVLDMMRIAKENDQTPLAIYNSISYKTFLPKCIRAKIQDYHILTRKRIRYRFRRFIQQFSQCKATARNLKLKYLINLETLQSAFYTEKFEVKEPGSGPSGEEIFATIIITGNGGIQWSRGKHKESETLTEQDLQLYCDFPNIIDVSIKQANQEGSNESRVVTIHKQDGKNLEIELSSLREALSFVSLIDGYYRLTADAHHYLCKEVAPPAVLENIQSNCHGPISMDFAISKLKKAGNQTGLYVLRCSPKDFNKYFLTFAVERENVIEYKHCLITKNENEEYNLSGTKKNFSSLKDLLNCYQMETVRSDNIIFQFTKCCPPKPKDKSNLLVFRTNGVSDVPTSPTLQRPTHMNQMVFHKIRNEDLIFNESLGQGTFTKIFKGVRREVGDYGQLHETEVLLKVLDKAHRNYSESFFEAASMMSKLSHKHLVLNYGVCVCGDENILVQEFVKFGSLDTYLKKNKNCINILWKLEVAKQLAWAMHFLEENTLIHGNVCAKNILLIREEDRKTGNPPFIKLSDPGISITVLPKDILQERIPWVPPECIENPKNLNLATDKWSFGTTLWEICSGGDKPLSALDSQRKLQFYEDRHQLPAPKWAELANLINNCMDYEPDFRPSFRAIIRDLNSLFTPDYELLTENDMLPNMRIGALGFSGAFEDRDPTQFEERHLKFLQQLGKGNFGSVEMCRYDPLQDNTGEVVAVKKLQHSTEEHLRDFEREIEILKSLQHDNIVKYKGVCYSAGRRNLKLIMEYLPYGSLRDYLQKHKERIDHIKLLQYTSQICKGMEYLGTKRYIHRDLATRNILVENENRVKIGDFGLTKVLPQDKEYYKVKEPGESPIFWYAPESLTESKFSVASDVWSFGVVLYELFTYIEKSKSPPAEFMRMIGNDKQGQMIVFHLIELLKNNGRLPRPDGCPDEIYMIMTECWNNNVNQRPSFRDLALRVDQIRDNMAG
Sequence of EPHB1 (P54762 whole entry, looked up): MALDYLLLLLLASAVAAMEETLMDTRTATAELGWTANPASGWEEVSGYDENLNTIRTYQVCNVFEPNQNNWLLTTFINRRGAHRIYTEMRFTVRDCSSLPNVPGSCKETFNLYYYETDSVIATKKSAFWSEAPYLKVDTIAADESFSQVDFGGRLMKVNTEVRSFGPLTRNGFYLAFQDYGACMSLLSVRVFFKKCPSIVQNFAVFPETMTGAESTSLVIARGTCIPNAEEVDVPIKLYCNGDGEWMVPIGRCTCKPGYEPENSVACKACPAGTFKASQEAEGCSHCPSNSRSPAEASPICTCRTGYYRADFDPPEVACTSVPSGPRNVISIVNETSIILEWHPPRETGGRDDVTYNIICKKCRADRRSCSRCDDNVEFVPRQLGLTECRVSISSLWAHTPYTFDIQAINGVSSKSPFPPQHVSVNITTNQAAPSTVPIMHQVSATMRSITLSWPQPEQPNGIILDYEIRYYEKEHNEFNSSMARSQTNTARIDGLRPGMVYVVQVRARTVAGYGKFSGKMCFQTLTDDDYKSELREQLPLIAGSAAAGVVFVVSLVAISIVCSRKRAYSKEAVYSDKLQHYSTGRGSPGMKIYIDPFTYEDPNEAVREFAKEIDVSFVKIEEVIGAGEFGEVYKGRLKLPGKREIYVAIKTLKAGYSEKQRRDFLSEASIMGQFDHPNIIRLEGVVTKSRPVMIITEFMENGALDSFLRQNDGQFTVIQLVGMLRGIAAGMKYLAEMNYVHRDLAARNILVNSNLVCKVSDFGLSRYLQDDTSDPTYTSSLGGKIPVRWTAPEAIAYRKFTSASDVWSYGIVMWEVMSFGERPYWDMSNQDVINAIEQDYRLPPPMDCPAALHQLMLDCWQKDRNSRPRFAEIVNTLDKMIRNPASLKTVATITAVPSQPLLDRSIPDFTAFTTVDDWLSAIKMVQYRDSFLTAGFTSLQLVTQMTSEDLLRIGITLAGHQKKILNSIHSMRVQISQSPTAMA
Sequence of Hck (P08631 whole entry, looked up): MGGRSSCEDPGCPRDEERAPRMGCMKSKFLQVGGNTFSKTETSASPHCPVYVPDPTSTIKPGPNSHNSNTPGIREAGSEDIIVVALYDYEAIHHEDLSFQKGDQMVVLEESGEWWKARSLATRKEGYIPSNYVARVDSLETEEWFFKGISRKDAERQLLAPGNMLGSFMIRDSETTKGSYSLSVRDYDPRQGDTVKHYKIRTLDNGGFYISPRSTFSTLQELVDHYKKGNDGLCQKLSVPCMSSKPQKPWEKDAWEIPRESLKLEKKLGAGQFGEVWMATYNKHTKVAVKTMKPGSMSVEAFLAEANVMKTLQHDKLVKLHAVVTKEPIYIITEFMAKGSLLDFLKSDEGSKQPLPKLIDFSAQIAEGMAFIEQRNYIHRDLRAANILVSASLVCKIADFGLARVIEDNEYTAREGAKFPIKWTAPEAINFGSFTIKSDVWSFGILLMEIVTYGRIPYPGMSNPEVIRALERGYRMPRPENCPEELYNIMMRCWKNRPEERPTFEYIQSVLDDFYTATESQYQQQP
Sequence of Fyn (P06241 whole entry, looked up): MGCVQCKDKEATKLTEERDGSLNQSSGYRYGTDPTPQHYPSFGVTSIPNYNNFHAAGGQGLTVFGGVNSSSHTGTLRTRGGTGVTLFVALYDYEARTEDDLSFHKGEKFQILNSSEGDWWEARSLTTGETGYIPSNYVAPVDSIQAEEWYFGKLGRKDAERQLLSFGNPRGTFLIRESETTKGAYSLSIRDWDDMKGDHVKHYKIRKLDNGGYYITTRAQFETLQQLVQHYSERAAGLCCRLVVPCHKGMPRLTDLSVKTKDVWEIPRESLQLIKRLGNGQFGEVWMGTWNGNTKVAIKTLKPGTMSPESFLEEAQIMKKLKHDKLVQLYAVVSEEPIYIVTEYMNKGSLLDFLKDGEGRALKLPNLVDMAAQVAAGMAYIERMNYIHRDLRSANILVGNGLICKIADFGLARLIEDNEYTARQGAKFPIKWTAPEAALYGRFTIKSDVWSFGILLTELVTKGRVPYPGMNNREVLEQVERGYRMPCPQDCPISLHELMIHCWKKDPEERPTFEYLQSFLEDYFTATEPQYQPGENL
Sequence of EPHB2 (P29323 whole entry, looked up): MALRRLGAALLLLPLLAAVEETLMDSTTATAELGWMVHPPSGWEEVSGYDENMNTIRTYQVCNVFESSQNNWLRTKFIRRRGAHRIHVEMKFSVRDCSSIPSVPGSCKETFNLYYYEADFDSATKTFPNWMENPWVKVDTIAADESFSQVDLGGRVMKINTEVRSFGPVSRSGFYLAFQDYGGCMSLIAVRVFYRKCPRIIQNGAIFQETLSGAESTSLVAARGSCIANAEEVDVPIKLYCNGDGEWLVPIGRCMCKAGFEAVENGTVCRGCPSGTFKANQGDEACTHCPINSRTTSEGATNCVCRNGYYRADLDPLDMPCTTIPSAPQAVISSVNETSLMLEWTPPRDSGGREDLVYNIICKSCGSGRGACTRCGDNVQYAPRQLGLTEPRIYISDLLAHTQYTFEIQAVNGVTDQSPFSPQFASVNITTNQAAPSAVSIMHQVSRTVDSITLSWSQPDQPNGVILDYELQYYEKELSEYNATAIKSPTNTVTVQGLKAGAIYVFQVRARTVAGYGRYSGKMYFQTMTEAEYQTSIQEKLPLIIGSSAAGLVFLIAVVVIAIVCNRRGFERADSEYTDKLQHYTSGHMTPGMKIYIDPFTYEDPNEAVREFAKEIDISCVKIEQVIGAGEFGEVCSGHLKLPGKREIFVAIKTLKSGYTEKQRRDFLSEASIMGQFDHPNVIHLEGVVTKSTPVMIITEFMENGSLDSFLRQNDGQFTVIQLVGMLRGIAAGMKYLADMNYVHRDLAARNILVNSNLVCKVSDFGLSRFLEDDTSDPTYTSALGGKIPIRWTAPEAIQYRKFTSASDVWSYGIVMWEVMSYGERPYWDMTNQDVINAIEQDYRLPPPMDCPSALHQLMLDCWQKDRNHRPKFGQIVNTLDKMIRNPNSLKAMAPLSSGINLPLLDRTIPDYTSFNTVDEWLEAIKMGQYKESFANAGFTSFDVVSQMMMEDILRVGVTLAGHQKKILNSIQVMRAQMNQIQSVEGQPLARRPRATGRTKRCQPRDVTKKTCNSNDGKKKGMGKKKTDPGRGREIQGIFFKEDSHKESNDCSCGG

| Sequence | SH2 binding enrichment (Grb2 SH2) | SH2 binding enrichment (SHP2-C SH2) | SH2 binding enrichment (c-Src SH2) | phosphorylation enrichment (FGFR3) | phosphorylation enrichment (MERTK) | phosphorylation enrichment (FGFR1) | phosphorylation enrichment (AncSZ) | phosphorylation enrichment (Hck) | phosphorylation enrichment (c-Src) | phosphorylation enrichment (Fer (mouse)) | phosphorylation enrichment (Jak2) | phosphorylation enrichment (EPHB1) | phosphorylation enrichment (Fyn) | phosphorylation enrichment (EPHB2) | phosphorylation enrichment (c-Abl (mouse)) | phosphorylation enrichment (Fes) |
| --- | --- | --- | --- | --- | --- | --- | --- | --- | --- | --- | --- | --- | --- | --- | --- | --- |
| QTENKYDSVSG [EIF2AK3_Y565] | 0.839 | 0.724 | 7.1 | 0.64 | 0.615 | 0.912 | 0.865 | 0.783 | 0.467 | 0.384 | 1.98 | 0.407 | 0.604 | 0.561 | 0.56 | 1.13 |
| RAIGHYSATSK [FAM120A_Y328_Y327H] | 0.702 | 0.81 | 0.619 | 0.892 | 0.757 | 0.576 | 0.964 | 0.942 | 0.665 | 0.542 | 0.665 | 0.684 | 0.522 | 0.819 | 0.777 | 0.97 |
| RAILDYIASKF [GSTA3_Y74_N73D_YF] | 1.08 | 1.06 | 0.689 | 0.79 | 0.375 | 0.567 | 0.674 | 0.395 | 0.358 | 0.542 | 0.755 | 0.479 | 0.433 | 0.445 | 0.603 | 1.02 |
| RCNHPYLINGA [CHD7_Y1256_C1251R] | 0.931 | 0.693 | 0.732 | 0.569 | 0.429 | 0.464 | 0.664 | 0.506 | 0.481 | 0.505 | 0.646 | 0.249 | 0.401 | 0.518 | 0.578 | 0.68 |
| RDHYGYRQSVT [CD55_Y245] | 0.98 | 0.775 | 0.484 | 0.339 | 0.774 | 0.747 | 1.22 | 0.806 | 0.822 | 0.748 | 0.455 | 0.883 | 0.866 | 0.472 | 0.794 | 0.794 |
| RELGEYPLAEF [ALDH1A3_Y492_A493P_YF] | 0.763 | 0.617 | 2.13 | 0.742 | 0.614 | 0.709 | 1.18 | 0.536 | 0.582 | 0.484 | 1.41 | 0.511 | 0.636 | 0.645 | 0.753 | 1.14 |
| REQREYLEQLN [CCDC88B_Y1277_D1279E] | 0.679 | 0.73 | 0.52 | 0.755 | 0.58 | 0.611 | 1.18 | 0.706 | 0.529 | 0.523 | 1.15 | 0.54 | 0.531 | 0.559 | 0.786 | 0.939 |
| RFLRGYRQDAF [HLA-A_Y137_YF] | 1 | 0.888 | 0.559 | 0.677 | 0.799 | 0.569 | 0.644 | 0.802 | 0.413 | 0.658 | 0.498 | 0.742 | 0.489 | 0.47 | 0.708 | 1.01 |
| RGNMYYENSYA [EGFR_Y113] | 10.5 | 0.978 | 5.02 | 1.02 | 2.85 | 1.29 | 0.957 | 0.845 | 1.19 | 2.84 | 2.08 | 1.04 | 0.832 | 0.619 | 1.65 | 1.2 |
| RGRSTYYWPSP [GAGE12J_Y9_R13S] | 0.647 | 0.472 | 0.373 | 1.01 | 6.32 | 1.49 | 2.12 | 0.949 | 1.23 | 0.699 | 0.656 | 0.994 | 0.938 | 0.871 | 0.647 | 0.885 |
| RHLQEYQDPLN [GFAP_Y349_L352P] | 0.949 | 0.842 | 0.645 | 0.668 | 0.576 | 0.723 | 0.823 | 0.517 | 0.503 | 0.472 | 0.878 | 0.504 | 0.579 | 0.739 | 0.753 | 0.959 |
| RHPFFFAPELL [ALB_Y174_Y174F_YF] | 1.34 | 1.44 | 1.05 | 1.64 | 0.727 | 0.619 | 1.64 | 0.859 | 0.932 | 0.529 | 1.15 | 0.947 | 0.771 | 0.842 | 1.02 | 1.72 |
| RHTRSYDFMEG [FGF7_Y56_YF] | 0.944 | 1.2 | 1.92 | 0.726 | 1.13 | 0.591 | 0.848 | 0.857 | 0.82 | 0.794 | 0.852 | 0.293 | 0.823 | 0.792 | 1.3 | 1.19 |
| RHTRSYDYMEG [FGF7_Y56] | 1.33 | 1.06 | 3.83 | 0.529 | 0.628 | 0.7 | 0.609 | 0.716 | 0.389 | 0.533 | 0.513 | 0.534 | 0.561 | 0.92 | 0.552 | 0.958 |
| RIFDFYSARKA [STOX1_Y858_YF] | 0.75 | 0.538 | 0.529 | 0.979 | 0.644 | 0.82 | 1.21 | 1.33 | 0.645 | 0.72 | 0.729 | 1.1 | 0.849 | 0.847 | 1.04 | 1.59 |
| RIVEIYSRRLQ [GCH1_Y175] | 0.789 | 0.879 | 0.617 | 0.96 | 0.678 | 0.777 | 0.942 | 1.02 | 0.803 | 0.556 | 0.794 | 0.645 | 0.921 | 0.92 | 0.747 | 0.976 |
| RKKEEYKMALY [F8_Y1990] | 1.38 | 0.762 | 0.931 | 0.33 | 0.462 | 0.58 | 0.492 | 1.05 | 0.546 | 0.289 | 0.477 | 0.337 | 0.46 | 0.387 | 0.632 | 0.708 |

Now from value to sequence, other results behind:

| SH2 binding enrichment (Grb2 SH2) | SH2 binding enrichment (SHP2-C SH2) | SH2 binding enrichment (c-Src SH2) | Sequence | phosphorylation enrichment (FGFR3) | phosphorylation enrichment (MERTK) | phosphorylation enrichment (FGFR1) | phosphorylation enrichment (AncSZ) | phosphorylation enrichment (Hck) | phosphorylation enrichment (c-Src) | phosphorylation enrichment (Fer (mouse)) | phosphorylation enrichment (Jak2) | phosphorylation enrichment (EPHB1) | phosphorylation enrichment (Fyn) | phosphorylation enrichment (EPHB2) | phosphorylation enrichment (c-Abl (mouse)) | phosphorylation enrichment (Fes) |
| --- | --- | --- | --- | --- | --- | --- | --- | --- | --- | --- | --- | --- | --- | --- | --- | --- |
| 0.733 | 0.517 | 0.832 | QPDLLYDHIQP [TRRAP_Y862_F860L] | 1.5 | 14.4 | 1.02 | 3.04 | 15.1 | 10.3 | 25 | 1.27 | 15.2 | 13.5 | 18.1 | 3.03 | 2.01 |
| 0.936 | 0.793 | 0.653 | QQIFTYDSGIH [JUP_Y22_T19I_YF] | 1.09 | 0.901 | 0.784 | 1.46 | 0.833 | 0.939 | 0.653 | 1.2 | 0.967 | 0.897 | 0.991 | 1.14 | 1.32 |
| 0.905 | 0.689 | 0.857 | QQPGPYDRPGA [HNRNPH2_Y210_R206Q] | 0.619 | 0.599 | 0.66 | 0.683 | 0.662 | 0.577 | 0.551 | 0.643 | 0.528 | 0.565 | 0.493 | 0.567 | 1.39 |
| 0.936 | 0.917 | 0.98 | QRDSSYFWEIE [RAF1_Y340_YF] | 1.25 | 0.774 | 1.04 | 2.48 | 0.934 | 0.712 | 0.813 | 3.31 | 0.776 | 0.966 | 0.968 | 0.989 | 1.92 |
| 0.868 | 0.598 | 0.607 | QYQLKYSETPF [SIX6OS1_Y129] | 0.769 | 0.838 | 0.598 | 1 | 0.722 | 0.519 | 0.43 | 0.7 | 0.743 | 0.591 | 0.907 | 0.808 | 1.1 |
| 0.939 | 0.439 | 0.468 | RAFRHYLLKQK [SCN2A_Y1919_R1918H_YF] | 1.68 | 0.97 | 0.955 | 1.16 | 1.28 | 0.907 | 1.49 | 0.912 | 0.793 | 1.16 | 1.67 | 1.48 | 1.59 |
| 0.61 | 0.573 | 0.514 | RAYRRYLLKQK [SCN2A_Y1919] | 0.495 | 0.387 | 0.489 | 0.729 | 0.51 | 0.446 | 0.415 | 0.486 | 0.353 | 0.559 | 0.468 | 0.42 | 0.491 |
| 0.788 | 0.475 | 0.512 | REIHDYIKHLG [UNC13C_Y308_D304E] | 0.741 | 0.723 | 0.371 | 0.631 | 0.511 | 1.02 | 0.651 | 0.843 | 0.699 | 0.821 | 0.663 | 0.794 | 1.26 |
| 0.786 | 0.776 | 0.618 | REVKAYGAGLL [TH_Y419_G414R] | 0.817 | 0.411 | 0.411 | 0.559 | 0.419 | 0.363 | 0.853 | 0.53 | 0.487 | 0.532 | 0.405 | 0.55 | 0.649 |
| 0.707 | 0.625 | 0.691 | REVPVYIGEDS [SYNM_Y460] | 0.909 | 0.426 | 0.661 | 1.05 | 0.659 | 0.481 | 0.499 | 1.02 | 0.391 | 0.402 | 0.547 | 0.595 | 1.36 |
| 0.443 | 0.721 | 0.293 | RFVTRHIFNRE [HLA-DQB1_Y62_Y62H_YF] | 0.658 | 0.583 | 0.584 | 0.843 | 0.431 | 0.62 | 0.43 | 0.766 | 0.482 | 0.651 | 0.314 | 0.719 | 1.12 |
| 1.09 | 0.655 | 0.423 | RGDTVYTVNRM [KBTBD13_Y404] | 1.21 | 0.808 | 0.824 | 1.05 | 1.61 | 4.93 | 0.83 | 0.834 | 0.825 | 5.2 | 0.441 | 1.06 | 1.35 |
| 0.697 | 0.584 | 0.648 | RGMVMYTSKDR [ZG16B_Y136] | 0.645 | 0.528 | 0.523 | 0.941 | 0.614 | 0.533 | 0.413 | 0.744 | 0.623 | 0.493 | 0.597 | 0.428 | 0.857 |
| 1.25 | 1.42 | 0.975 | RGNKEYKEEKR [LENG1_Y96_E97K] | 0.735 | 0.392 | 0.606 | 0.462 | 0.425 | 0.398 | 0.303 | 0.511 | 0.369 | 0.399 | 0.423 | 0.688 | 0.861 |
| 1 | 0.353 | 0.435 | RGRKVYLEDGF [PRIM2_Y201] | 0.851 | 1.15 | 0.749 | 1.04 | 0.852 | 1.11 | 1.13 | 0.808 | 0.662 | 0.698 | 0.649 | 1.29 | 0.911 |
| 1.77 | 2.13 | 1.38 | RHFTGYRIELQ [INSR_Y818] | 0.661 | 0.546 | 0.531 | 1.01 | 0.401 | 0.525 | 0.544 | 0.989 | 0.472 | 0.604 | 0.56 | 0.805 | 1.37 |
